The source of these data is the supplement of paper PMC10567573.

± gives the standard deviation.

A short description of this data set: protein stability index of a GFP-peptide fusion (GPS, HEK-293T) (PSI 1-6); higher = more stable. The settings on record: c terminus: a fixed tail appended.
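Further: 24-mer peptide tiles fused after GFP, lentivirally expressed, FACS-sorted into six equal bins by GFP/DsRed ratio, decoded by Illumina sequencing, PSI is the read-weighted mean bin number.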

Sequence DNDPSCVHPIIKRRQCRPEIRMWQ [PHTF1] showed a protein stability index (treatment: DMSO) of 2.54 ± 0.25 and a protein stability index (treatment: MLN4924 1 uM, 8 h) of 2.5 ± 0.41.

For the sequence DNHNLIERRRRFNINDRIKELGTL [TFE3], the protein stability index (treatment: DMSO) is 3.33 ± 0.13 and the protein stability index (treatment: MLN4924 1 uM, 8 h) came out at 3.69 ± 0.22.

As for DNVPDPKDVKERFSGSLVAALSAT [TMEM175], the protein stability index came to 4.42 ± 0.34 (treatment: DMSO) and 4.44 ± 0.34 (treatment: MLN4924 1 uM, 8 h).

DPGQDLVPKQAIQVQEADEAGWGG [DLX1]: the protein stability index reads like this: (treatment: DMSO) 5.18 ± 0.28; (treatment: MLN4924 1 uM, 8 h) 5.22 ± 0.4.

Regarding DPSSTKPGTLLKTSPSPERSLLLK [TRIM14], the protein stability index amounted to 4.59 ± 0.2 (treatment: DMSO) and 4.67 ± 0.21 (treatment: MLN4924 1 uM, 8 h).

For the sequence DPTGPAGLGRPTPGLSQGPGKETL [EHMT1], the protein stability index was determined as 5.17 ± 0.15 (treatment: DMSO) and 5.09 ± 0.13 (treatment: MLN4924 1 uM, 8 h).

As for DPVRQCAECALVSLKEAEFYDKQL [ZFYVE21], the protein stability index was determined as 3.62 ± 0.046 (treatment: DMSO) and 3.67 ± 0.32 (treatment: MLN4924 1 uM, 8 h).

For the sequence DQFTQVFLESQGIELNPPEKMALD [EFHC1], the protein stability index amounted to 4.662 ± 0.027 (treatment: DMSO) and 4.78 ± 0.24 (treatment: MLN4924 1 uM, 8 h).

DRFLAGVPTPKSHLQLLGAVCMFL [CCND2]: the protein stability index runs as follows: (treatment: DMSO) 2.63 ± 0.2; (treatment: MLN4924 1 uM, 8 h) 2.27 ± 0.21.

For DRHTKFFEEPEDPSNRSFFSEIIS [PPP2R2B], the protein stability index runs as follows: (treatment: DMSO) 3.38 ± 0.1; (treatment: MLN4924 1 uM, 8 h) 3.48 ± 0.23.

As for DRILERIEDSTGLNRPGPAPLSSR [TCF25], the protein stability index is 4.47 ± 0.21 (treatment: DMSO) and 4.66 ± 0.19 (treatment: MLN4924 1 uM, 8 h).

For the sequence DTAHDFRAKCRNMEHALREKAKAF [TRIM35], the protein stability index runs as follows: (treatment: DMSO) 3.18 ± 0.25; (treatment: MLN4924 1 uM, 8 h) 3.43 ± 0.23.

For the sequence DTVEIREVHERNDGIDPFPLLMNR [EFHC1], the protein stability index by setting is: (treatment: DMSO) 4.3 ± 0.15; (treatment: MLN4924 1 uM, 8 h) 4.42 ± 0.25.

DTVTIPVPSEEPQESDQTEEHESG [IQUB]: the protein stability index reads like this: (treatment: DMSO) 5.54 ± 0.29; (treatment: MLN4924 1 uM, 8 h) 5.72 ± 0.14.

With DVAVTVDRDRFMDEFFEQVEEIRG [STX1A], the protein stability index came to 4.35 ± 0.39 (treatment: DMSO) and 4.49 ± 0.25 (treatment: MLN4924 1 uM, 8 h).

DVLLLGNDYIVPRHCPELAEMSRV [HNF4A]: the protein stability index runs as follows: (treatment: DMSO) 2.65 ± 0.2; (treatment: MLN4924 1 uM, 8 h) 2.49 ± 0.3.

Regarding DVTDEHGEREPFAETDEHTGANTK [FAM9B], the protein stability index worked out at 5.49 ± 0.12 (treatment: DMSO) and 5.5 ± 0.065 (treatment: MLN4924 1 uM, 8 h).

Regarding EAARNGKMKFVIGNGKNLVDFTFV [NSDHL], the protein stability index reads like this: (treatment: DMSO) 2.17 ± 0.47; (treatment: MLN4924 1 uM, 8 h) 2.04 ± 0.35.

On to EADKNDKAVKDLVVLLFETALLSS [HSP90AB1], for which the protein stability index runs as follows: (treatment: DMSO) 2.13 ± 0.067; (treatment: MLN4924 1 uM, 8 h) 2.2 ± 0.39.

With EAFQLYQEAAQLDMLLEKLPQVAE [FLOT1], the protein stability index is 2.43 ± 0.37 (treatment: DMSO) and 2.69 ± 0.44 (treatment: MLN4924 1 uM, 8 h).

Consider EAFYYIHNLVVACEIQVRTLASAG [ADD1], for which the protein stability index is, setting by setting: (treatment: DMSO) 2.93 ± 0.63; (treatment: MLN4924 1 uM, 8 h) 2.98 ± 0.57.

EAPSTASSTPDSTEGGNDDSDFRE [RTN2] yielded a protein stability index (treatment: DMSO) of 5.57 ± 0.35 and a protein stability index (treatment: MLN4924 1 uM, 8 h) of 5.63 ± 0.23.

Consider EARGIRAPPLPDSPQPLASSPGPW [FCHO1], for which the protein stability index is, setting by setting: (treatment: DMSO) 4.34 ± 0.28; (treatment: MLN4924 1 uM, 8 h) 4.31 ± 0.15.

For EATPRSLRASGSLCGPHAKAPYLC, the protein stability index was 2.77 ± 0.26 (treatment: DMSO) and 2.82 ± 0.23 (treatment: MLN4924 1 uM, 8 h).

For EAYLASLRADQEKERKKREERERK [FAF2], the protein stability index (treatment: DMSO) was 5.33 ± 0.35 and the protein stability index (treatment: MLN4924 1 uM, 8 h) is 5.46 ± 0.23.

For the sequence EAYTEHRPEITSRAINLLFDIARI [ZER1], the protein stability index by setting is: (treatment: DMSO) 2.14 ± 0.18; (treatment: MLN4924 1 uM, 8 h) 2.01 ± 0.21.

In the case of EDAEGEEEEEEEEEEEDDLSELPP [FKBP8], the protein stability index reads like this: (treatment: DMSO) 5.67 ± 0.19; (treatment: MLN4924 1 uM, 8 h) 5.56 ± 0.18.

As to EDEEPQEPNRLETGEAGEELDLRL [RTN2], the protein stability index reads like this: (treatment: DMSO) 5.73 ± 0.12; (treatment: MLN4924 1 uM, 8 h) 5.52 ± 0.4.

Regarding EDELSLVKGSRVTVMEKCSDGWWR [NCK2], the protein stability index by setting is: (treatment: DMSO) 3.68 ± 0.18; (treatment: MLN4924 1 uM, 8 h) 3.69 ± 0.32.

In turn, EDKCPGNYTNPLKVQTVIILGKVI [TMEM192] had a protein stability index (treatment: DMSO) of 2.47 ± 1 and a protein stability index (treatment: MLN4924 1 uM, 8 h) of 2.29 ± 0.37.

For the sequence EDMEASDYELEDETRPAKRITITE [WEE1], the protein stability index (treatment: DMSO) was 5.42 ± 0.25 and the protein stability index (treatment: MLN4924 1 uM, 8 h) turned out to be 5.36 ± 0.17.

As to EDVEAVQKLQDVLHEALQDYEAGQ [ESRRG], the protein stability index (treatment: DMSO) was determined as 4.92 ± 0.46 and the protein stability index (treatment: MLN4924 1 uM, 8 h) was determined as 4.95 ± 0.51.

In the case of EEEERLRREEEERRRIEEERLRLE [ACBD3], the protein stability index was 5.61 ± 0.25 (treatment: DMSO) and 5.52 ± 0.12 (treatment: MLN4924 1 uM, 8 h).

Turning to EEEGFGSSSPVKSPAAPYFLGSSF [WEE1], the protein stability index is 3.73 ± 0.18 (treatment: DMSO) and 3.77 ± 0.065 (treatment: MLN4924 1 uM, 8 h).

EEELQEIASEPTNKHLFYAEDFST [MATN2] had a protein stability index (treatment: DMSO) of 5.26 ± 0.41 and a protein stability index (treatment: MLN4924 1 uM, 8 h) of 5.21 ± 0.32.

On to EEHESGIEQFSESHAIHVEEQSDQ [IQUB], for which the protein stability index was 5.61 ± 0.12 (treatment: DMSO) and 5.56 ± 0.11 (treatment: MLN4924 1 uM, 8 h).
